Measurements: publication PMC5897774, “Mitotic spindle association of TACC3 requires Aurora‐A‐dependent stabilization of a cryptic α‐helix” (The EMBO Journal, 2018)
Where a chain is given by its changes, count along the chain named. Numbers in names are those of the source. Each block holds one molecule with its values, some of them ahead of it. Non-standard residues stand in square brackets, D forms with d. No end group written: not given here. pS = N[C@@H](COP(=O)(O)O)C(=O)O; FAM = fluorescein label

Columns and labels:
[1] = biological target: FAM‐TACC3 522–536 (WT site 1 peptide) (human) (UniProt Q9Y6A5); assay: fluorescence polarisation; FAM‐TACC3 peptides with Aurora‐A; performed as in Richards et al, 2016; triplicate; one‐site total binding fit; Kd ± SE
[2] = biological target: FAM‐TACC3 522–536 R526A (human) (UniProt Q9Y6A5); assay: as above
[3] = biological target: FAM‐TACC3 522–536 L532A (human) (UniProt Q9Y6A5); assay: as above
[4] = biological target: FAM‐WT TACC3 519–570 (human) (UniProt Q9Y6A5); assay: as above
[5] = biological target: FAM‐TACC3 522–536 phosphorylated on T534 (human) (UniProt Q9Y6A5); assay: as above
[6] = biological target: FAM‐TACC3 522–536 F525A (human) (UniProt Q9Y6A5); assay: as above
[7] = biological target: WT Aurora‐A (of the FP assays) (human) (UniProt O14965)
[8] = NMR chemical shift index analysis of TACC3 549–570 helicity; type: physicochemical; conditions: 2 mM peptide, 20 mM Tris pH 7.2, 50 mM NaCl, 290 K, αH and αC secondary shifts
From the text: We used NMR spectroscopy to determine the extent to which these α‐helices are present in TACC3 in the absence of binding partners in solution. Chemical shift index (CSI) plots were created for phosphorylated and unphosphorylated TACC3^CID following standard methods (Fig 7D and E; Wishart & Sykes, 1994). In addition to calculating α‐proton chemical shifts we also measured secondary chemical shifts for α‐carbons. After the type of amino acid, the main contribution to chemical shifts of α‐carbons is the ψ angle and thus the backbone conformation. Proximity of charges or aromatic side chains which can strongly affect proton chemical shifts has virtually no effect on the chemical shifts of α‐carbons which makes them very robust probes of backbone conformation. […] We concluded that phosphorylation of S558 increases the propensity for α‐helix formation in TACC3, and we examined the structure to identify the mechanism.
For analysis of TACC3 549–570 helicity, synthetic peptides were weighed in to give a sample concentration of 2 mM in 20 mM Tris pH 7.2 and 50 mM NaCl. Spectra were recorded at a temperature of 290 K on a Bruker Avance‐Neo 600 MHz spectrometer equipped with a prodigy cryoprobe. Peptides were assigned using 2D NOESY, TOCSY and 13C HSQC spectra recorded with watergate and gradient coherence selection, respectively. […]

[9] = system: Aurora‐A KD (substrate: Aurora‐A D274N); assay: Substrate phosphorylation of kinase‐dead Aurora‐A D274N by Aurora‐A KD (Western blot αphospho‐T288); type: biochemical, human; conditions: Aurora‐A D274N as substrate, 1 h, room temperature
From the text: (§1) Figure 2 TACC3 523–534 forms a docking interaction on the N‐lobe of Aurora‐A • Magnified view of the site 1 interaction. • Schematic showing the key features of the TACC3/Aurora‐A interface. • FP assays of binding between site 1 of TACC3 and Aurora‐A. The sequence of TACC3 present in the complex crystal structure is shown (top) with the residues of the site 1 FP peptide coloured orange and mutated residues identified by coloured circles corresponding to the curves shown in the FP assay (below). Data represent mean of three experiments ± SD. […] Data represent mean of three experiments ± SD. […] Reactions were analysed by SDS–PAGE (above) and Western blotting with an αphospho‐T288 Aurora‐A antibody (below). […] They are listed as printed.
(§2) Autophosphorylation assays were performed as for radioactive ^32P‐ATP reactions using Aurora‐A 122–403 co‐expressed with lambda phosphatase for 1 h at room temperature with His‐Aurora‐A D274N as a substrate in replace of MBP. Reactions were resolved by SDS–PAGE and subject to Western blotting using an α‐phospho‐T288 Aurora‐A antibody (CST 2914, 1:2,000) as per the manufacturer's recommendation.

[10] = system: unphosphorylated Aurora‐A KD; assay: Autophosphorylation assay of unphosphorylated Aurora‐A KD (Western blot αphospho‐T288); type: biochemical, human; conditions: unphosphorylated Aurora‐A 122–403, 1 h, room temperature
From the text: as §1, §2

Aurora‐A [11] = biological target: T1, Aurora‐A (Homo sapiens, UniProt O14965, C290A/C393A); assay: Radioactive 32P‐ATP kinase assay, MBP substrate; type: biochemical; conditions: 0.625 μM phosphorylated Aurora‐A, 5 μM TACC3^N‐ACID, 0.25 mg/ml MBP, 10 min, scintillation counting, duplicate
T1 construct: pET30TEV Aurora‐A 122–403 C290A, C393A; made in house
T1 sequence (O14965 122-403 C290A/C393A): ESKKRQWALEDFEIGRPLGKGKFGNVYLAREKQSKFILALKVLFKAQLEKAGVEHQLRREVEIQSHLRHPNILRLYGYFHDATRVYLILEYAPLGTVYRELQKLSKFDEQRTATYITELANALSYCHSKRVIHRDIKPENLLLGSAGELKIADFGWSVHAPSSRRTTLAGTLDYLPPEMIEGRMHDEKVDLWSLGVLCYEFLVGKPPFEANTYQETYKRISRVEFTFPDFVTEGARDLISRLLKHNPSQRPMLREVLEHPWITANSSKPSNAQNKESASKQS
Experimental: Figure EV2 Biochemical and structural analysis of the Aurora‐A/TACC3 complex • FP assay between FAM‐TACC3 519–570 and Aurora‐A. Reactions were performed in triplicate. Error bars represent standard deviation. […] Error bars represent standard deviation. […] This peptide was based on the location of a sulphate ion, originating from the crystallization solution, at the interface of the Aurora‐A/TACC3 interface in the crystal structure, close to TACC3 T534. […] Myelin basic protein (MBP) was used as a generic kinase substrate. Incorporation of radioisotope was measured by scintillation counting. Reactions were performed in duplicate. Error bars represent standard error. Assays were compared to the WT TACC3^N‐ACIDH6c reaction by one‐way ANOVA with Dunnett's post hoc test. […], **P < 0.01 and ****P < 0.0001. • Multiple sequence alignment of TACC3 (above) and Aurora‐A (below) orthologs spanning the interaction binding interface. Key binding residues are boxed in red. The TACC3 phosphorylation sites, S552 and S558, are boxed in blue. The TACC3 LL motif required for binding to CHC is boxed in green. The TACC3 α‐helix produced on binding to CHC is identified by a black line. TEXT PRINTED IN THE PICTURE: (A) TACC3 519-570: 3.0 ± 0.2 μM | (B) WT: 20 ± 1 μM | (B) R526A: 49 ± 2 μM | (B) phospho-T534: 14 ± 1 μM
Radioactive ^32P‐ATP kinase assays were performed as described previously (Burgess et al, 2015). In brief, 0.625 μM Aurora‐A^M3KD WT or selected mutant was incubated with 0.25 mg/ml MBP alone and in the presence of 5 μM TACC3^N‐ACID WT or mutant for 10 min. Reactions were terminated by the addition of 2% (v/v) orthophosphoric acid. Samples were spotted onto P81 Whatman paper, washed extensively with 0.2% (v/v) orthophosphoric acid and incorporation of radioisotope measured by scintillation counting.

Aurora‐A [12] = biological target: T1, Aurora‐A; parameters: method as in Burgess et al, 2015; conditions: previous data, effect of F525A mutation; ref Burgess et al, 2015; read-out: K d of the interaction; cited from earlier work
[13] = biological target: T2, CHC 1–574 (clathrin heavy chain propeller‐ankle fragment) (UniProt Q00610 1-574); assay: FP
T2 chain: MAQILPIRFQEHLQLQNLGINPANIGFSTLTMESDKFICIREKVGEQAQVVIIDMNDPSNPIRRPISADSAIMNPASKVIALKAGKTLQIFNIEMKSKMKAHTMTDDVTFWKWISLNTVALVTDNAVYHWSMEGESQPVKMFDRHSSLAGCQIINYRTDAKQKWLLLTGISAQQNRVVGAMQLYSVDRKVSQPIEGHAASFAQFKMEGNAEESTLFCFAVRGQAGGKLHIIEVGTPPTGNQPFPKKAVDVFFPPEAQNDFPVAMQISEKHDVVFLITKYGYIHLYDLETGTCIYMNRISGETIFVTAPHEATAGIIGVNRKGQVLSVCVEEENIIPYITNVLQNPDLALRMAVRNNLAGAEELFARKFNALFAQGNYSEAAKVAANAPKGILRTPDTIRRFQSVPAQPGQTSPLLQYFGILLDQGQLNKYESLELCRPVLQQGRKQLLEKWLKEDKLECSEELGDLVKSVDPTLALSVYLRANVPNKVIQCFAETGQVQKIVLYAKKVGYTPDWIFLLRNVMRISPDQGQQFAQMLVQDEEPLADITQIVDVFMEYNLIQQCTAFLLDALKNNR

[14] = biological target: T2, CHC 1–574 (clathrin heavy chain …); assay: FP
Aurora‐A 122–403 D274N = biological target: T3, Aurora‐A 122–403 D274N (human, UniProt O14965 122-403, D274N); assay: NMR titration; 13C/15N‐labelled TACC3 peptide (300 μM) alone and in complex with Aurora‐A 122–403 D274N; 20 mM KPO4 pH 7.0, 50 mM NaCl, 1 mM DTT; 298 K; chemical shift perturbation; conditions: both partners purified
T3 construct: also called Aurora‐A^KD D274N; source: expressed and purified as described in previous work (Burgess et al, 2015)
T3 sequence (looked up): T1 sequence (O14965 122-403 C290A/C393A) with D153N, A169C, A272C

[15] = biological target: T4, CHC 1–574 (clathrin heavy chain propeller‐ankle fragment) (UniProt Q00610 1-574); assay: fluorescence polarisation; CHC proteins serially diluted in 20 mM HEPES–NaOH pH 7.5, 200 mM NaCl, 5 mM DTT; 50 nM FAM‐labelled TACC3 peptide; 30 min at room temperature; read at 25°C; conditions: both partners purified
T4 construct: source: modified pGEX vector
T4 sequence (looked up): T2 chain

Molecule: WT Aurora‐A (of the FP assays) (from UniProt O14965 122-403) (domain or fragment)
Kd [1]: 20 µM | Kd [2]: 49 µM | Kd [3]: 251 µM | Kd [4]: 3 µM | Kd [5]: 14 µM | Kd [6]: 2300 µM

Molecule: TACC3 519–563‐H6c (WT TACC3^N‐ACIDH6c) (from UniProt Q9Y6A5 519-563) (domain or fragment)
32P‐ATP kinase assay with MBP as substrate: stimulation of Aurora‐A activity [7]: 8 fold

Molecule: TACC3^N‐ACID F525A: TACC3^N-ACID with F525A mutation (ELKEESARDPAEVLGTGAEVDYLEQFGTSSFKESALRKQSLYLKF; not fully specified (C-terminus))
substrate phosphorylation on T288 (Aurora‐A D274N) [9]: reduced | Aurora‐A autophosphorylation on T288 [10]: reduced | stimulation of Aurora‐A activity (Aurora‐A [11]): twofold–threefold | Kd (Aurora‐A [12]): > 150 µM

Molecule: {FAM}-FKESALAAQ[pS]LYLKFDPLLRDS [FAM‐phospho‐TACC3^CID R555A, K556A]
Kd [13]: 209 µM

Molecule: {FAM}-FKESALRKQ[pS]LYLKFDPAARDS [FAM‐phospho‐TACC3^CID L566A, L567A]
Kd [14]: 345 µM

B2: FAM‐non‐phosphorylated TACC3^CID (aa549–570) (peptide, UniProt Q9Y6A5 549-570, looked up)
peptide: {FAM}-FKESALRKQSLYLKFDPLLRDS
notes: TACC3, human, aa549–570 (TACC3^CID); also called unphosphorylated TACC3^CID peptide; S558; source: FAM‐labelled peptide (FAM‐TACC3 peptides: PPR, Cambridge; Almac, Craigavon)
Kd [15]: 216 µM

Second part, the molecule after the results:

propensity for helix formation (CSI) [8]: tendency towards helix formation
Molecule: FKESALRKQSLYLKFDPLLRDS [unphosphorylated peptide, synthetic TACC3 549–570 peptide, unphosphorylated, used for NMR]

propensity for helix formation (CSI) [8]: much higher propensity
Molecule: FKESALRKQSLYLKFDPLLRDS [phosphorylated peptide, synthetic TACC3 549–570 peptide phosphorylated at S558, used for NMR]

binding result (Aurora‐A 122–403 D274N): binds
B1: ^13C^15N TACC3 519–540 (domain or fragment, human, UniProt Q9Y6A5 519-540, looked up)
chain: ELKEESFRDPAEVLGTGAEVDY
modifications: also: 13C, 15N labelled
notes: TACC3, human, aa519–540 (stop codon at residue 541 of pETM6T1 TACC3 519–563); source: expressed and purified as described for 13C15N‐TACC3 519–563 (Burgess et al, 2015)
